Assay results taken from the supplement of paper PMC11908140.

B1: library; numbered along this chain (parent)
chain: MRKPRAAVGSGHRKQAASQEGRQKHAKNNSQAKPSACDGLARQPEEVVLQASVSSYHLFRDVAEVTAFRGSLLSWYDQEKRDLPWRRRAEDEMDLDRRAYAVWVSEVMLQQTQVATVINYYTGWMQKWPTLQDLASASLEEVNQLWAGLGYYSRGRRLQEGARKVVEELGGHMPRTAETLQQLLPGVGRYTAGAIASIAFGQATGVVDGNVARVLCRVRAIGADPSSTLVSQQLWGLAQQLVDPARPGDFNQAAMELGATVCTPQRPLCSQCPVESLCRARQRVEQEQLLASGSLSGSPDVEECAPNTGQCHLCLPPSEPWDQTLGVVNFPRKASRKPPREESSATCVLEQPGALGAQILLVQRPNSGLLAGLWEFPSVTWEPSEQLQRKALLQELQRWAGPLPATHLRHLGEVVHTFSHIKLTYQVYGLALEGQTPVTTVPPGARWLTQEEFHTAAVSTAMKKVFRVYQGQQPGTCMGSKRSQVSSPCSRKKPRMGQQVLDNFFRSHISTDAHSLNSAAQ

Variants of: B1
Assay: 8OG:A repair function score (normalized; synonymous = 0, nonsense = -1) (normalized log-likelihood score); higher = more repair activity (WT-like)
Conditions: with 8OG:A DNA repair reporter (GFP) in HEK-293 MUTYH KO cells
Procedure: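 Saturation mutagenesis (NNN codon scan) of the MUTYH cDNA (521-aa nuclear isoform NM_001048174.1 / NP_001041639), stably expressed under doxycycline induction in HEK-293 MUTYH knockout cells. Cells were co-transfected with an 8OG:A-bearing GFP repair reporter plus mCherry and sorted 72 h later into GFP+ and GFP− bins, three replicates per tile. The Rosace log2 enrichment (GFP+ vs GFP−) was converted per tile to a normalized function score with synonymous variants centered at 0 and nonsense variants (codons 1-471) at -1; low-abundance variants were removed.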

Variant | 8OG:A repair function score
W146E | -1.03
W146A | -0.448
W146M | -0.182
W146C | -0.255
W146Y | -0.532
W146H | -0.738
W146F | -0.152
W146R | -1.28
W146I | -0.138
W146S | -0.39
W146T | -0.294
W146L | -0.263
W146P | -1.14
W146G | -0.399
W146N | -0.671
W146D | -1.2
W146V | -0.296
W146K | -0.739
W146Q | -0.345
L139V | 0.0777
L139G | -0.00666
L139T | 0.00391
L139F | -0.0535
L139M | -0.053

Variant | 8OG:A repair function score
L139H | 0.1
L139E | -0.17
L139S | -0.0783
L139N | 0.213
L139Y | -0.0177
L139D | -0.831
L139Q | -0.0666
L139C | -0.0786
L139A | -0.241
L139K | -0.511
L139R | -0.0247
L139I | 0.139
L139P | 0.0573
L139W | -0.0565
L145N | 0.0178
L145W | -0.0219
L145S | 0.0372
L145D | 0.000565
L145R | -0.0437
L145C | 0.112
L145F | 0.0113
L145P | -1.26
L145H | 0.0825
L145E | -0.0292

Variant | 8OG:A repair function score
L145A | 0.0661
L145G | 0.0263
L145M | 0.00629
L145Y | 0.0659
L145K | 0.0459
L145V | -0.0541
L145T | -0.001
L145Q | 0.154
L145I | -0.102
Q144N | -0.299
Q144H | -0.0216
Q144G | -0.106
Q144S | 0.0476
Q144L | -0.000148
Q144Y | -0.286
Q144T | -0.0237
Q144D | -0.5
Q144V | -0.0203
Q144A | -0.134
Q144P | -0.282
Q144E | -0.0907
Q144I | 0.051
Q144F | -0.198
Q144C | -0.0295

Variant | 8OG:A repair function score
Q144M | 0.0906
Q144W | -0.282
Q144K | -7.85e-05
Q144R | 0.0872
S138L | -0.279
S138N | -0.128
S138Y | -0.0612
S138V | -0.188
S138K | -0.105
S138W | -0.724
S138M | -0.0953
S138T | 0.0193
S138P | -0.0208
S138Q | -0.0419
S138R | 0.0347
N143I | -0.0751
N143F | -0.0267
N143E | -0.196
N143D | -0.456
N143P | -0.4
N143S | -0.133
N143A | -0.35
N143K | -0.343
N143C | -0.216

Variant | 8OG:A repair function score
N143Q | -0.222
N143M | 0.113
N143L | -0.0917
N143R | -0.181
N143V | -0.199
N143H | -0.621
N143Y | 0.0152
N143T | -0.286
N143W | -0.253
N143G | -0.139
E140L | -0.0779
E140Y | -0.187
E140C | -0.0271
E140A | -0.0255
E140F | -0.353
E140R | -0.124
E140T | -0.149
E140G | -0.183
E140I | -0.242
E140K | -0.15
E140P | -0.438
E140N | -0.0981
E140D | 0.0449
E140S | -0.0988

Variant | 8OG:A repair function score
E140W | -0.595
E140M | -0.00715
E140H | -0.253
E140Q | -0.159
E140V | -0.181
A147F | -0.305
A147G | -0.174
A147C | -0.226
A147D | -0.118
A147E | -0.144
V142M | -0.673
V142H | -0.882
V142S | -0.632
V142G | -0.5
V142Y | -0.971
V142A | -0.377
V142P | -0.569
V142C | -0.143
V142L | -0.245
V142F | -0.926
V142T | -0.532
V142N | -1.86
V142Q | -0.397
V142R | -0.841

Variant | 8OG:A repair function score
V142D | -1.15
V142K | -0.84
V142E | -0.728
V142W | -0.941
V142I | -0.297
E141S | -0.0511
E141D | -0.251
E141A | -0.0585
E141Y | -0.924
E141K | -0.0452
E141M | -0.111
E141C | -0.219
E141H | 0.19
E141L | -0.401
E141V | -0.27
E141R | -0.449
E141G | -0.256
E141P | -0.499
E141F | -0.392
E141W | -0.348
E141T | -0.0124
E141I | -0.599
E141N | 0.127
